# Experimental data reported in PMC12846072.
# Target: VP2 capsid protein of Epizootic hemorrhagic disease virus serotype 8, wild type (Epizootic hemorrhagic disease virus serotype 8 (EHDV-8)) (UniProt Q00273)
# Assay: SEC; FPLC-SEC on Superose 6 16/300 in PBS 1X pH 7.4, calibrated with the gel filtration HMW calibration kit; oligomeric state from retention time
substance,measurement,value
"VP2 capsid protein of Epizootic hemorrhagic disease virus serotype 8, wild type (from UniProt Q00273 1-971) (natural protein)",stoichiometry N,3
